The supplement of paper PMC6379048

Assays:
Assay in all cases: Kd (EC50 corrected by depletion factor)
MEX3C = molecular target: T1, MEX3C (UniProt Q5U5Q3)
T1 sequence: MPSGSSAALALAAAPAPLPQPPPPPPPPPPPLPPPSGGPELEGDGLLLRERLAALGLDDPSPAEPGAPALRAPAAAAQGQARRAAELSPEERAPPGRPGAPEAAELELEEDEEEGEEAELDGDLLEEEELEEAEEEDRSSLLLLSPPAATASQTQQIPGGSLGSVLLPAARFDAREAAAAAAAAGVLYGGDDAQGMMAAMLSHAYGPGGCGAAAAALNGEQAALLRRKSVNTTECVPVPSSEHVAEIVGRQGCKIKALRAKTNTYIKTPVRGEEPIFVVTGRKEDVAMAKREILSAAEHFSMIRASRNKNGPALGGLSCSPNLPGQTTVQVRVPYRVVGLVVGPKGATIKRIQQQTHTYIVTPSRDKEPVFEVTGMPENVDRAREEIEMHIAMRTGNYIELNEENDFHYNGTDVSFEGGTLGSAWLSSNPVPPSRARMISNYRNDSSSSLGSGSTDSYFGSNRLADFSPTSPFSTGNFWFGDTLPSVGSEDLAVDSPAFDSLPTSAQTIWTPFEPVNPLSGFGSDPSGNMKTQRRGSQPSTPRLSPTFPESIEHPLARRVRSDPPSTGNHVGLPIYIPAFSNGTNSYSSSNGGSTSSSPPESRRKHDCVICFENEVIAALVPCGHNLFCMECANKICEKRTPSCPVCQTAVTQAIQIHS
How it was run: (§1)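 HEK293-FT lysate (2.5 mg protein/well) was pre-incubated 1 h at 4°C with free RNA oligos (0 nM to 30 μM), then 30 min at 4°C with the same 5′-amino-C6 oligos coupled to NHS-Sepharose beads. Bound proteins were quantified by label-free LC-MS/MS in three biological replicates and two independent experiments, and normalised to the water control. EC50 came from a four-parameter log-logistic fit; Kd is EC50 times a protein-dependent depletion factor.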

ZCRB1 = molecular target: T2, ZCRB1 (UniProt Q8TBF4)
T2 sequence: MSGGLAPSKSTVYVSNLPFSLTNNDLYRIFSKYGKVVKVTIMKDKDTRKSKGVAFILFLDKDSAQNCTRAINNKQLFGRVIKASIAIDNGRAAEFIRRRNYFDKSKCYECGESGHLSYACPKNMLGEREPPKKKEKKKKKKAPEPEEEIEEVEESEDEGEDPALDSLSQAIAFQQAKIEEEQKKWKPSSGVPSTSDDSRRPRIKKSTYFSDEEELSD
How it was run: as §1

MCM4 = molecular target: T3, MCM4 (UniProt P33991)
T3 sequence: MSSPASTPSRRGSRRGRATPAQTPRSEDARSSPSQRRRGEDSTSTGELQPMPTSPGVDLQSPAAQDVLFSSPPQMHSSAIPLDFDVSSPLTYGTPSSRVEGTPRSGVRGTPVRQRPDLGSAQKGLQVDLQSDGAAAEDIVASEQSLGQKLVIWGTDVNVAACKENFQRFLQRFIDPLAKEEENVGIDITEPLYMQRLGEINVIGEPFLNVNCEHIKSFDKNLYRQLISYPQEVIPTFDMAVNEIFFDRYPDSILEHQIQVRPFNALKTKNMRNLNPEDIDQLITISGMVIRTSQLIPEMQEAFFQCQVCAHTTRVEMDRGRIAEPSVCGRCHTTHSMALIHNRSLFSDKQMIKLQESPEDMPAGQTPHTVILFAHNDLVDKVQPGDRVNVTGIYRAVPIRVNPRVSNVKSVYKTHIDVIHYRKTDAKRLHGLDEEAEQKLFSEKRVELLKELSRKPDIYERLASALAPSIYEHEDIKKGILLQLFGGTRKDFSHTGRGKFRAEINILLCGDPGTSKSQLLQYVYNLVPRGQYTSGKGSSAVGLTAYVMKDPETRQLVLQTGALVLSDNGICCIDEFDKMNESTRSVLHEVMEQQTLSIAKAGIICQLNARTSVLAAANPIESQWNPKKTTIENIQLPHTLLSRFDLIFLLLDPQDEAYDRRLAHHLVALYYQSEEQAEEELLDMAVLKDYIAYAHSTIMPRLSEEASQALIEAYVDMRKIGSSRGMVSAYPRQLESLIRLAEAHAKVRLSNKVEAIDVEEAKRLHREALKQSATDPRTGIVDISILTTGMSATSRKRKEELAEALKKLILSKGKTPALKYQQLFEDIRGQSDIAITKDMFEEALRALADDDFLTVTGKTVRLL
How it was run: as §1

PUF60 = molecular target: T4, PUF60 (UniProt Q9UHX1)
T4 sequence: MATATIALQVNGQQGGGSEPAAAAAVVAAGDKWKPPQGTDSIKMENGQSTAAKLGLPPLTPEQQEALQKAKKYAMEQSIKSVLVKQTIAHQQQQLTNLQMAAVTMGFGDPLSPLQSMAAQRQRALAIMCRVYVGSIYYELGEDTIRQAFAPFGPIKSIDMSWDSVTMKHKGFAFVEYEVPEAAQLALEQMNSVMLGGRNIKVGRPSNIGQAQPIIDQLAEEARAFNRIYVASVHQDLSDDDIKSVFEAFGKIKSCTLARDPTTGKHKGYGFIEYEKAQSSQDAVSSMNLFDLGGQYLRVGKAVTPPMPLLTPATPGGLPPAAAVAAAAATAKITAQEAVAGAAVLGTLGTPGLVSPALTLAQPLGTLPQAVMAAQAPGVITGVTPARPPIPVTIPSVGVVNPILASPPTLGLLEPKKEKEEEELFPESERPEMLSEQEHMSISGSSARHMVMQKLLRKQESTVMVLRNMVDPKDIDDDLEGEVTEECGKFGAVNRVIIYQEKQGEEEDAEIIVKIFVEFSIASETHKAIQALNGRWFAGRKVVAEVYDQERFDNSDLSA
How it was run: as §1

Sequence | Kd (MEX3C) [nM] | Kd (ZCRB1) [nM] | Kd (MCM4) [nM] | Kd (PUF60) [nM]
UAUUUAU | 339 | 3450 |  | 
AAUAAA |  |  | 25.8 | 162
